Test [1] deals with T1, human CD70 (human, UniProt P32970 1-193).
T1 construct: whole, on cells; Stated as human for the CHO transfectants; also called cell surface CD70s
T1 sequence (looked up): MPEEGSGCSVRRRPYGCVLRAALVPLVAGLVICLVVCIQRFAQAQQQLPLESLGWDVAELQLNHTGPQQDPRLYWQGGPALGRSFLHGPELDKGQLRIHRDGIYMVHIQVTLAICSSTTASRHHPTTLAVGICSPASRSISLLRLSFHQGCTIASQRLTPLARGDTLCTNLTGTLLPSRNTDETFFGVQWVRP
Description: flow cytometry on CD47+CD70+ Raji cells.

Test [2] has as its target T1, human CD70. Description: flow cytometry on CD70+ CHO cells. How it is done: (§1) Cells were washed with 1% BSA-PBS once, and then incubated with 100 μl 1:500 diluted FITC-conjugated secondary antibody against human IgG-Fc (Cat #F9512, Sigma) at 4° C. for 45 min. Cells were washed once with 1% BSA-PBS, re-suspended in 200 μl 1% BSA-PBS, and then subject to FACS analysis using a flow cytometer (Merck Millipore, Guava® easyCyte 5HT).
Background: In flow cytometry, cells or beads pass a laser one at a time.

Test [3] has as its target T1, human CD70. Briefly: flow cytometry on CHO cells expressing human CD70. As for the experimental part:
as §1

B1: Cusatuzumab (antibody, human IgG1, lambda, V domains shown)
VH: EVQLVESGGGLVQPGGSLRLSCAASGFTFSVYYMNWVRQAPGKGLEWVSDINNEGGTTYYADSVKGRFTISRDNSKNSLYLQMNSLRAEDTAVYYCARDAGYSNHVPIFDSWGQGTLVTVSS
VL: QAVVTQEPSLTVSPGGTVTLTCGLKSGSVTSDNFPTWYQQTPGQAPRLLIYNTNTRHSGVPDRFSGSILGNKAALTITGAQADDEAEYFCALFISNPSVEFGGGTQLTVLG
notes: Anti-CD70 IgG used as comparator
Turning to B1, the binding result in test [1] is “binds”.

B2: IMM40H (antibody, human IgG1, kappa, V domains shown)
VH: QVQLVQSGAEVKKPGASVKVSCKVSGYTFTDSALHWVRQAPGKGLEWMGVISTYDGDTDYNQKFKGRVTMTEDTSTDTAYMELSSLRSEDTAVYYCARRGYYDYDWFPYWGQGTLVTVSA
VL: DIVLTQSPASLAVSPGQRATITCRASKSVSASGYSFLHWYQQKPGQPPKLLIYLASNLESGVPARFSGSGSGTDFTLTINPVEANDTANYYCQHSRELPPTFGGGTKVEIKR
notes: Humanized IgG1/kappa; X=N for IMM40H; N85 is a glycosylation site in the light chain variable region; also called IMM4OH
In the case of B2, the binding result in test [2] is “binds”.

B3: IMM40M (antibody, human IgG1, kappa, V domains shown)
VH: QVQLVQSGAEVKKPGASVKVSCKVSGYTFTDSALHWVRQAPGKGLEWMGVISTYDGDTDYNQKFKGRVTMTEDTSTDTAYMELSSLRSEDTAVYYCARRGYYDYDWFPYWGQGTLVTVSA
VL: DIVLTQSPASLAVSPGQRATITCRASKSVSASGYSFLHWYQQKPGQPPKLLIYLASNLESGVPARFSGSGSGTDFTLTINPVEAEDTANYYCQHSRELPPTFGGGTKVEIKR
notes: IMM40H with N85E in the light chain variable region, which removes a glycosylation site; also called IMM4OM
As for B3, the binding result in test [2] is on record as “binds”.

B4: IMM40C (antibody, human IgG1, kappa, V domains shown)
VH: QVQLQQSGPEVVRPGVSVKISCKGSGYTFTDSALHWVKQSHAKSLEWIGVISTYDGDTDYNQKFKGKATMTVDKSSSTAYMELARLTSEDSAIYYCARRGYYDYDWFPYWGQGTLVTVSA
VL: DIVLTQSPASLAISLGQRATISCRASKSVSASGYSFLHWYQQKPGQPPKLLIYLASNLESGVPARFSGSGSGTDFTLNIHPVEEEDAATFYCQHSRELPPTFGGGTKLEIKR
notes: Chimeric IgG: mouse variable regions with human IgG1 and human kappa constant regions; expressed in CHO-S cells
B4: the binding result in test [3] is recorded as “binds”.

(Values after patent US20230112123A1 (IMMUNEONCO BIOPHARMACEUTICALS SHANGHAI, published 2023).)
